Experimental data taken from patent publication EP4059949A1 (AFFILOGIC, dated 2022).

Tests used:
[1] = target: complement component C3b (obtained after hydrolysis of C3) (UniProt P01024); assay: biolayer interferometry
[2] = target: T1, complement component C3b (obtained after hydrolysis of C3) (UniProt P01024 23-667; P01024 749-1663); assay: biolayer interferometry (Octet RED96), GFP tagged Nanofitin captured by anti-GFP Nanofitin, C3b in solution, 1:1 fit
[3] = target: T1, complement component C3b (obtained …); assay: biolayer interferometry; B10 made recombinantly in E. coli
[4] = target: T1, complement component C3b (obtained …); assay: biolayer interferometry; B10 made by full chemical synthesis

T1 sequence (P01024 23-667 limits assumed, chain 1 of 2): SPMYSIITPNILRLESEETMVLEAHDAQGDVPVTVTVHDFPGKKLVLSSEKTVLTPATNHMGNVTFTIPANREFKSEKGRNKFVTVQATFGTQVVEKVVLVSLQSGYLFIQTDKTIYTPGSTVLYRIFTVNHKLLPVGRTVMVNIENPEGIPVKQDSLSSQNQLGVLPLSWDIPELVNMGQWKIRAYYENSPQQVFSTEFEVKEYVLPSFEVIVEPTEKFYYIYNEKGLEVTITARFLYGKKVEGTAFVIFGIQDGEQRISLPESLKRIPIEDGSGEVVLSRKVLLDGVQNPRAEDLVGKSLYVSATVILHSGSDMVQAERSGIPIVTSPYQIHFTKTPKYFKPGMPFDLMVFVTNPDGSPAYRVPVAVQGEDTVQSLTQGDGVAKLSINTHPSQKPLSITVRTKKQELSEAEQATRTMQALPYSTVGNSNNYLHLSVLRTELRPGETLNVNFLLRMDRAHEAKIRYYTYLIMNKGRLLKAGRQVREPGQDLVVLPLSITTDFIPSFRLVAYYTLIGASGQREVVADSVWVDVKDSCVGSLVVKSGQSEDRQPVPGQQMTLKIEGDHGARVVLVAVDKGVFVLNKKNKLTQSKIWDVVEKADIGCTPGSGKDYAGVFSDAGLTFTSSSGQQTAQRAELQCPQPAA
T1 sequence (P01024 749-1663 limits assumed, chain 2 of 2): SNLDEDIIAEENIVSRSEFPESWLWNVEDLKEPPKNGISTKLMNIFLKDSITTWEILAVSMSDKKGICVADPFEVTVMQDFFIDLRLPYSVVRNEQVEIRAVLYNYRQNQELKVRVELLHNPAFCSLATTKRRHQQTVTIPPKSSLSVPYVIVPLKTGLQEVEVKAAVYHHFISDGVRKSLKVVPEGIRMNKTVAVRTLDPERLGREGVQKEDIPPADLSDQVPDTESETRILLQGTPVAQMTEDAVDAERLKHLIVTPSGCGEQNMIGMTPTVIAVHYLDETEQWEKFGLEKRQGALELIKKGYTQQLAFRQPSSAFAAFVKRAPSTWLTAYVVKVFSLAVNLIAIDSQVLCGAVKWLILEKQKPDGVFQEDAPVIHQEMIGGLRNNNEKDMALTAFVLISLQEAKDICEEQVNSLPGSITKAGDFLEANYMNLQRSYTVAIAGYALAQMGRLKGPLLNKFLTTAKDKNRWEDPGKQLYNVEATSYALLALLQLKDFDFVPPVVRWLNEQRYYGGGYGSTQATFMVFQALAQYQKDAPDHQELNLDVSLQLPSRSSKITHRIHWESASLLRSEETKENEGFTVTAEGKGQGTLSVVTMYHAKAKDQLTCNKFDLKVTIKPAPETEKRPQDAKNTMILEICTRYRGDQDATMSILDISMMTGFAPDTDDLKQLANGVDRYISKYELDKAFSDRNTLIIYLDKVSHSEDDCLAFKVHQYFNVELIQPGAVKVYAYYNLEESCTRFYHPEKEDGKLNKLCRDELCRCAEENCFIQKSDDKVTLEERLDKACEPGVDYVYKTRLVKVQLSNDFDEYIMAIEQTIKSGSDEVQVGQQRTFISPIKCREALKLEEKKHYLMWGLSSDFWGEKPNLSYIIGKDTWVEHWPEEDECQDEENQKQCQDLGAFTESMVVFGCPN
Sequence of complement component C3b (obtained after hydrolysis of C3) (UniProt P01024) (P01024 23-667 limits assumed, chain 1 of 2): as the sequence (P01024 23-667 limits assumed, chain 1 of 2) above
Sequence of complement component C3b (obtained after hydrolysis of C3) (UniProt P01024) (P01024 749-1663 limits assumed, chain 2 of 2): as the sequence (P01024 749-1663 limits assumed, chain 2 of 2) above

Row | Binder | Kd [1] [nM] | Kd [2] [nM] | koff [2] [s⁻¹] | kon [2] [M⁻¹ s⁻¹] | also measured
1 | anti-C3 Nanofitin B10 with N-terminal peptide (10-mers) and C-terminal 30 kDa protein (designed binder, part only; not given: peptide tag and 30 kDa protein, not shown: small tags and cut ends) chain, part: MVKVKFDATGEEKEVDTSKISAVYRTGKDVLFSYDDNGKIGWGYVSEKDAPKELLDLLARAERE | 7.3 |  |  |  | 
2 | B10 (SEQ ID NO: 25), GFP tagged Nanofitin (designed binder, Variant of Nf1 from off-rate selection; not shown: GFP tag) MVKVKFDATGEEKEVDTSKISAVYRTGKDVLFSYDDNGKIGWGYVSEKDAPKELLDLLARAERE |  | 7.31 | 0.000433 | 59200 | 
3 | anti-C3 Nanofitin B10 with N-terminal 48 kDa protein (designed binder, part only; not given: 48 kDa fusion protein, part only) chain, part: MVKVKFDATGEEKEVDTSKISAVYRTGKDVLFSYDDNGKIGWGYVSEKDAPKELLDLLARAERE | 6.7 |  |  |  | 
4 | anti-C3 Nanofitin B10 without N- or C-terminal tag (designed binder, also called Nter tag none, Cter tag none) MVKVKFDATGEEKEVDTSKISAVYRTGKDVLFSYDDNGKIGWGYVSEKDAPKELLDLLARAERE |  |  |  |  | Kd [3]: 18.5 nM; Kd [4]: 18 nM
5 | H03 (SEQ ID NO: 26), GFP tagged Nanofitin (designed binder, Variant of Nf1 from off-rate selection; not shown: GFP tag) MVKVKFAATGEEKEVDTSKIANVYRVGKDVLFSYDDNGKIGWGYVSEKDAPKELLDLLARAERE |  | 2.89 | 0.000188 | 65200 | 
